Measured values published in patent publication US9062123B2, “Labelled adrenomedullin derivatives and their use for imaging and therapy” (PLUMOSCIENCE INC., priority 2004, dated 2015).
One block for each compound: values may come before it.

Key:
[1] = dog, in vivo
Procedure: Multi-organic biodistribution of ^99mTc-DTPA-hAM1-52 was evaluated with an Anger camera (420/550 Mobile Radioisotope Gamma Camera; Technicare, Solon, Ohio, USA) equipped with on board computer, and a low-energy parallel-hole collimator (model 14S22014). Following intravenous injection of ^99mTc-DTPA-hAM1-52, dynamic acquisition of the lungs, heart, liver and kidneys was recorded for a 30-min period (one frame/sec during the first minute, then one frame/min for the remaining time). Static acquisitions was also recorded for whole individual organs, including lungs, kidneys, liver, heart, bladder, gallbladder and muzzle, at 30, 60, 120, 240 minutes after initial injection. These recordings were performed both in ventral and dorsal positions.
Dynamic and static acquisitions were evaluated by using Matlab version 7.01 image analysis tools software. The ^99mTc total count, ^99mTc mean count, and region of interest (ROI) size were calculated for each organ. Data correction was applied for 1) radioactive decay, 2) surgical table attenuation (dorsal images only), 3) geometric mean, and 4) organ's attenuation based on transmission factor.

[2] = dog, in vivo, iv
Procedure: All experimental procedures were performed in accordance with regulations and ethical guidelines from Canadian Council for the Care of Laboratory Animals, and received approval by the animal ethics and research committee of the Montreal Heart Institute. Mongrel dogs weighing between 20-30 kg and presenting negative Dirofilaria imitis blood test results were anesthetized by an initial intravenous dose of pentobarbital sodium (50 mg/kg). Animals were intubated and mechanically ventilated using room air. Cutaneous electrocardiographic leads were installed, and 18F cathlon with three-way was installed on both saphenous vein for 0.9% sodium chloride perfusion, radiolabelled injection and blood collection. A right arterial femoral catheter was also inserted using the Seldinger technique for continuous blood pressure monitoring.
Purified and buffered ^99mTc-DTPA-hAM1-52 samples were injected in right saphenous vein (n=6). A series of 2 mL blood samples were collected 1 min after the initial AM injection for a 10-min period, then repeated every 5 min for the following 50-min period. Blood samples were taken via left saphenous vein. […] The blood samples were then placed in an automatic gamma counter (model 1272 Clinigamma, LKB Wallac, Finland) to determine ^99mTc activity.
Plasma kinetics of ^99mTc-DTPA-hAM1-52 was fitted using a two-phase exponential decay equation with GraphPad Prism version 4.0 software. Time effects on each organ biodistribution were analyzed by two-way repeated measures ANOVA followed, when a significant interaction was found, by Bonferroni/Dunn t-test. Multiple organs biodistribution comparison at 30 minutes was performed by one-way ANOVA followed, when a significant interaction was found, by Bonferroni/Dunn t-test. A P values of <0.05 was considered significant. All results are reported as mean±S.D.

[3] = biological target: AM1 (CRLR+RAMP2) receptor, lungs of dogs; assay: Displacement of labelled human adrenomedullin in the lungs of dogs; assay type: binding, dog; conditions: displacement of labelled hAM

Compound: CC[C@H](C)[C@H](NC(=O)[C@H](CCC(N)=O)NC(=O)[C@H](Cc1c[nH]cn1)NC(=O)[C@H](C)NC(=O)[C@H](CC(C)C)NC(=O)[C@H](CCCCN)NC(=O)[C@H](CCC(N)=O)NC(=O)[C@@H](NC(=O)[C@@H](NC(=O)[C@@H]1CSSC[C@H](NC(=O)CNC(=O)[C@H](Cc2ccccc2)NC(=O)[C@H](CO)NC(=O)[C@H](CCCNC(=N)N)NC(=O)[C@H](CC(C)C)NC(=O)CNC(=O)[C@H](CCC(N)=O)NC(=O)[C@H](Cc2ccccc2)NC(=O)[C@H](CC(N)=O)NC(=O)[C@H](CC(N)=O)NC(=O)[C@H](CCSC)NC(=O)[C@H](CO)NC(=O)[C@H](CCC(N)=O)NC(=O)[C@H](CCCNC(=N)N)NC(=O)[C@H](Cc2ccc(O)cc2)NC(=O)CN(CCN(CCN(CC(=O)O)CC(=O)O)CC(=O)O)CC(=O)O)C(=O)N[C@@H](CCCNC(=N)N)C(=O)N[C@@H](Cc2ccccc2)C(=O)NCC(=O)N[C@@H]([C@@H](C)O)C(=O)N1)[C@@H](C)O)C(C)C)C(=O)N[C@@H](Cc1ccc(O)cc1)C(=O)N[C@@H](CCC(N)=O)C(=O)N[C@@H](Cc1ccccc1)C(=O)N[C@H](C(=O)N[C@@H](CC(=O)O)C(=O)N[C@@H](CCCCN)C(=O)N[C@@H](CC(=O)O)C(=O)N[C@@H](CCCCN)C(=O)N[C@@H](CC(=O)O)C(=O)N[C@@H](CC(N)=O)C(=O)N[C@H](C(=O)N[C@@H](C)C(=O)N1CCC[C@H]1C(=O)N[C@@H](CCCNC(=N)N)C(=O)N[C@@H](CO)C(=O)N[C@@H](CCCCN)C(=O)N[C@H](C(=O)N[C@@H](CO)C(=O)N1CCC[C@H]1C(=O)N[C@@H](CCC(N)=O)C(=O)NCC(=O)N[C@@H](Cc1ccc(O)cc1)C(N)=O)[C@@H](C)CC)C(C)C)[C@@H](C)O [^99mTc-DTPA-hAM1-52, metal not drawn]
- bladder retention, % of the injected dose [1]: 5.67±1.75%
- dynamic multi-organic biodistribution [1]: significant pulmonary first pass retention
- gallbladder retention, % of the injected dose [1]: 0.96±0.38%
- heart retention, % of the injected dose [1]: 7.17±2.04%
- kidneys retention, % of the injected dose [1]: 19.17±3.06%
- liver retention, % of the injected dose [1]: 11.67±1.37%
- lung retention, % of the injected dose [1]: 15.83±2.32%
- lungs retention, % of the injected dose [1]: 27.00±2.76%
- muzzle retention, % of the injected dose [1]: 1.17±0.41%
- distribution half-life [2]: 1.75 min
- elimination half-life [2]: 42.14 min
- ratio of rate constant for exchange between central and peripheral compartments (k1-2/k2-1) [2]: 24.09

Compound: CGRP(8-37): CGRP fragment 8-37 [reference compound]
- IC50 [3]: ≥ 10000 nM

Compound: PAMP: synthetic peptide of Table 1, not further defined (ARLDVASEFRKKWNKWALSR) [reference compound]
- IC50 [3]: ≥ 10000 nM

Compound: hAM2: AM2, a peptide within the same family as AM [reference compound]
- IC50 [3]: 480 nM

Compound: hAM(26-52): human adrenomedullin fragment, amino acids 26-52 (LAHQIYQFTDKDKDNVAPRSKISPQGY)
- IC50 [3]: ≥ 1000 nM

Other lines, results leading:

- IC50 [3]: 7.1 nM
Compound: CC[C@H](C)[C@H](NC(=O)[C@H](CCC(N)=O)NC(=O)[C@H](Cc1c[nH]cn1)NC(=O)[C@H](C)NC(=O)[C@H](CC(C)C)NC(=O)[C@H](CCCCN)NC(=O)[C@H](CCC(N)=O)NC(=O)[C@@H](NC(=O)[C@@H](NC(=O)[C@H](CS)NC(=O)[C@@H](NC(=O)CNC(=O)[C@H](Cc1ccccc1)NC(=O)[C@H](CCCNC(=N)N)NC(=O)[C@H](CS)NC(=O)CNC(=O)[C@H](Cc1ccccc1)NC(=O)[C@H](CO)NC(=O)[C@H](CCCNC(=N)N)NC(=O)[C@H](CC(C)C)NC(=O)CNC(=O)[C@H](CCC(N)=O)NC(=O)[C@H](Cc1ccccc1)NC(=O)[C@H](CC(N)=O)NC(=O)[C@H](CC(N)=O)NC(=O)[C@H](CCSC)NC(=O)[C@H](CO)NC(=O)[C@H](CCC(N)=O)NC(=O)[C@H](CCCNC(=N)N)NC(=O)[C@@H](N)Cc1ccc(O)cc1)[C@@H](C)O)[C@@H](C)O)C(C)C)C(=O)N[C@@H](Cc1ccc(O)cc1)C(=O)N[C@@H](CCC(N)=O)C(=O)N[C@@H](Cc1ccccc1)C(=O)N[C@H](C(=O)N[C@@H](CC(=O)O)C(=O)N[C@@H](CCCCN)C(=O)N[C@@H](CC(=O)O)C(=O)N[C@@H](CCCCN)C(=O)N[C@@H](CC(=O)O)C(=O)N[C@@H](CC(N)=O)C(=O)N[C@H](C(=O)N[C@@H](C)C(=O)N1CCC[C@H]1C(=O)N[C@@H](CCCNC(=N)N)C(=O)N[C@@H](CO)C(=O)N[C@@H](CCCCN)C(=O)N[C@H](C(=O)N[C@@H](CO)C(=O)N1CCC[C@H]1C(=O)N[C@@H](CCC(N)=O)C(=O)NCC(=O)N[C@@H](Cc1ccc(O)cc1)C(N)=O)[C@@H](C)CC)C(C)C)[C@@H](C)O [hAM linear, Linear adrenomedullin]

- IC50 [3]: 0.041 nM
Compound: N-Ac hAM: N-terminal acetylated AM

- IC50 [3]: 980 nM
Compound: hAM2(16-47): fragment 16-47 of hAM2 (QVQNLSHRLWQLMGPAGRQDSAPVDPSSPHSY) [reference compound]

- IC50 [3]: ≥ 10000 nM
Compound: hAM(1-25): human adrenomedullin fragment, amino acids 1-25 (YRQSMNNFQGLRSFGCRFGTCTVQK)

- IC50 [3]: 34 nM
Compound: hAM(13-52): human adrenomedullin fragment, amino acids 13-52

- IC50 [3]: ≥ 10000 nM
Compound: hAM(40-52): human adrenomedullin fragment, amino acids 40-52 (NVAPRSKISPQGY)
